Experimental data taken from US20220340682A1 (Sanofi, published 2022).
Positions count from the first letter of the chain named.

T1: hCEACAM5 NA1B1, human CEACAM5 N-A1-B1 domain (35-320) (human, UniProt P06731 35-320)
T1 construct: Followed by 6 amino acid His-Tag; also called hCEACAM5 N-ter-A1-B1
T1 sequence: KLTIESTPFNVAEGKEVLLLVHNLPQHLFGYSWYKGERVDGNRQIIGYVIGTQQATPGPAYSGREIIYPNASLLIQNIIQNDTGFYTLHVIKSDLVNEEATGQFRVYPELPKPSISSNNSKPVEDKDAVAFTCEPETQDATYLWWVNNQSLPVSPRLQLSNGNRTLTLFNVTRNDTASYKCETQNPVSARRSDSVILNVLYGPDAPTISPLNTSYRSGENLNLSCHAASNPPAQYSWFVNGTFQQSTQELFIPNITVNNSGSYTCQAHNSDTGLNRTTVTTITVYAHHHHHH

T2: CEACAM5 A2B2, human CEACAM5 A2-B2 domain (321-498) (human, UniProt P06731 321-498)
T2 construct: Followed by 6 amino acid His-Tag; also called hCEACAM5-A2-B2
T2 sequence: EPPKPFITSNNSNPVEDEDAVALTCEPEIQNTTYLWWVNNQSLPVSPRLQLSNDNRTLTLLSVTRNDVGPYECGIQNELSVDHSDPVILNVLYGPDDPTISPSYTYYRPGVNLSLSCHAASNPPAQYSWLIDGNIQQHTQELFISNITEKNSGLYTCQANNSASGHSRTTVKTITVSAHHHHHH

T3: CEACAM5 A3B3, human CEACAM5 A3-B3 domain (499-685) (human, UniProt P06731 499-685)
T3 construct: Followed by 6 amino acid His-Tag; also called hCEACAM5 A3-B3; human A3B3 domain
T3 sequence: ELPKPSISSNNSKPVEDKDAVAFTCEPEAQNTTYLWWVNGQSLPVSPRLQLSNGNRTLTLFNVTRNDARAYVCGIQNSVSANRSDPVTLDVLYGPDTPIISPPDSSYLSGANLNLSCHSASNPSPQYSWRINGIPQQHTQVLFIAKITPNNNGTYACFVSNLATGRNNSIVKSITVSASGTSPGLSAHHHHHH

T4: human CEACAM5 expressed on the surface of tumor cells (human, UniProt P06731 35-685)
T4 construct: Endogenous CEACAM5 of human tumor cells; also called hCEACAM5 on MKN45 cells; CEACAM5 on CR-IGR-034P primary colon tumor cells
T4 sequence: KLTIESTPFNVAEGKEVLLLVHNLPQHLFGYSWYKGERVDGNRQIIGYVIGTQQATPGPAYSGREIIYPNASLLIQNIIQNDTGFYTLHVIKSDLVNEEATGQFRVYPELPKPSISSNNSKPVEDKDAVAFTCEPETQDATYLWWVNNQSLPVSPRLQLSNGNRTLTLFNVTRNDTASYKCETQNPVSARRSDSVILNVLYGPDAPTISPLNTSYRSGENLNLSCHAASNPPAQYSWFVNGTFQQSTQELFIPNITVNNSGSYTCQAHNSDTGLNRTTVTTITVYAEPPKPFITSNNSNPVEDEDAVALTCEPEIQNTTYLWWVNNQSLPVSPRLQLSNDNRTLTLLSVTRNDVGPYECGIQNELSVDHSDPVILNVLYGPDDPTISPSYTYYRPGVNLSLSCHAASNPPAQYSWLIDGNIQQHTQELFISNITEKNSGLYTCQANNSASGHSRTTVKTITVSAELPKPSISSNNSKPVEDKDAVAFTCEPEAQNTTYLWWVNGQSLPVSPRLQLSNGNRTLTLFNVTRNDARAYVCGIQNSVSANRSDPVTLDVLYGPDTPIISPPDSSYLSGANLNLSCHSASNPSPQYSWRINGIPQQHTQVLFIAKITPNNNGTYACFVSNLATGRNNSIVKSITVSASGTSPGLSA

B1: huMAb2-3 (antibody, human IgG1, kappa, V domains shown)
VH: EVQLQESGPGLVKPGGSLSLSCAASGFVFSSYDMSWVRQTPERGLEWVAYISSGGGITYAPSTVKGRFTVSRDNAKNTLYLQMNSLTSEDTAVYYCAAHYFGSSGPFAYWGQGTLVTVSS
VL: DIQMTQSPASLSASVGDRVTITCRASENIFSYLAWYQQKPGKSPKLLVYNTRTLAEGVPSRFSGSGSGTDFSLTISSLQPEDFATYYCQHHYGTPFTFGSGTKLEIKR
notes: Humanized MAb2, human IgG1 / Ckappa; also called MAb2_VL1cVH1a-IgG1
B2: huMAb2-1 (antibody, V domains shown)
VH: B1 VH with G44R, A60F, V93I, S120A
VL: DIQMTQSPASLSASVGDTVTITCRASENIFSYLAWYQQKPGKSPKLLVYNTKTLAEGVPSRFSGSGSGTQFSLTISSLQPEDFGSYYCQHHYGTPFTFGSGTKLEIK
notes: Humanized MAb2 (VL1 + VH1) fused to human IgG1 and human Ckappa constant domains; also called MAb2_VL1VH1-IgG1; MAb2VL1VH1-IgG1
B3: chMAb2 (antibody, human IgG1, kappa, V domains shown)
VH: EVQLQESGGVLVKPGGSLKLSCAASGFVFSSYDMSWVRQTPEKRLEWVAYISSGGGITYFPDTVQGRFTVSRDNAKNTLYLQMNSLKSEDTAIYYCAAHYFGSSGPFAYWGQGTLVTVSA
VL: B1 VL with D17E, R18T, P40Q, K45Q, R52K, D70Q, T74K, S76N, A84G, T85S
notes: Chimeric, human IgG1, Ck isotype; also called MAb2-IgG1; chimeric MAb2
B4: huMAb2-4 (antibody, human IgG1, kappa, V domains shown)
VH: B1 VH with G44R, A60F, V93I, S120A
VL: B1 VL with R18T, D70Q, A84G, T85S
notes: Humanized MAb2, human IgG1 / Ckappa; also called MAb2_VL1d VH1-IgG1; MAb2_VL1dVH1-IgG1
B5: huMAb2-2 (antibody, V domains shown)
VH: B1 VH
VL: B2 VL with T18R, Q70D, G84A, S85T
notes: Humanized MAb2 (VL1a + VH1a) fused to human IgG1 and human Ckappa constant domains; also called MAb2_VL1aVH1a-IgG1; MA2_VL1aVH1a-IgG1
B6: antibody MAb4 (antibody, IgG1, V domains shown)
VH: EVQLVESGGGLVKPGGSLKLSCAASGFTFSSYDMSWVRQTPEKRLEWVAFISSYGGRTYYADTVKGRFTISRDNAKNTLYLQMSSLKSEDTAMFYCAAHYFGTSGPFAYWGQGTLVTVSA
VL: DIQMTQSPASLSASVGETVTITCRASENIYSYFAWYQQKQGKSPQLLVYNAKILAEGVPSRFSGSGSGTQFSLKINSLQPEDFGTYYCQHHYGIPFTFGSGTKLELK
notes: Murine monoclonal from hybridoma, IgG1, kappa
B7: antibody MAb5 (antibody, IgG1, V domains shown)
VH: ELQLVESGGVLVKPGGSLKLSCAASGFAFSSYDMSWVRQTPEKRLEWVTYINSGGGITYYPDTVKGRFTISRDNARNTLYLQMSSLKSEDTAIYYCTAHYFGSSGPFAYWGQGTLVTVSA
VL: B6 VL with F33L, I53T, A55T, T85S, I94T, L106I
notes: as for B6
B8: antibody MAb1 (antibody, IgG1, V domains shown)
VH: EVMLVESGGGLVKPGGSLKLSCAASGFTFSSYAMSWVRQTPEKRLEWVATISSGGSYIYYLDSVKGRFTISRDNAKNTLYLQMSSLRSEDTAMYYCARPAYYGNPAMDYWGQGTSVTVSS
VL: DILMTQSQKFMSTSVGDRVSVTCKASQNVGTNVAWYQQKPGQSPKPLIYSASYRYSGVPDRFTGSGSGTDFTLTISNVQSEDLAEYFCQQYNSYPLYTFGGGTKLEIK
B9: antibody MAb3 (antibody, IgG1, V domains shown)
VH: EVKLVESGGGLVKPGGSLTLPCAASGFTFSRYAMSWVRQTPEKRLEWVASISSGGDTYYPDSVKGRFTVSRDNARNILFLQMSSLRSEDTGMYYCARVNYYDSSFLDWWGQGTTLTVSS
VL: B8 VL with L3V, K9R, S14L, V15E, P46A, S93N
notes: as for B6

Legend:
[1] = biological target: T1, hCEACAM5 NA1B1, human CEACAM5 N-A1-B1 …; assay: ELISA on CEACAM5 domains
[2] = biological target: T2, CEACAM5 A2B2, human CEACAM5 A2-B2 …; assay: ELISA on CEACAM5 domains
[3] = biological target: T3, CEACAM5 A3B3, human CEACAM5 A3-B3 …; assay: ELISA on CEACAM5 domains
[4] = biological target: T4, human CEACAM5 expressed on the surface …; assay: flow cytometry on MKN45 cells
Method: The apparent affinity of anti-CEACAM5 antibodies to hCEACAM5 expressed on the surface of human MKN45 (DSMZ, ACC 409) tumoral cells were determined by Guava® easyCyte™ 8HT Flow Cytometry System. MKN45 tumoral cells were coated at 40,000 cells/well on 96-well High Bind plate (MSD L15XB-3) and 100 μL/well of anti-CEACAM5 antibodies were added in 2-fold serial dilutions starting at 20 μg/ml up to 12 dilutions in assay diluant for 45 min at 4° C. and washed three times with PBS 1% BSA. 100 μL/well of goat anti-mouse IgG conjugated with Alexa647 (Invitrogen; # A2135) was added for 45 min at 4° C. and washed three times with PBS 1% BSA. The antibody binding was evaluated after centrifugation and resuspension of cells by adding 200 μl/well PBS 1% BSA and read using Guava® easyCyte™ 8HT Flow Cytometry System. Apparent KD and EC₅₀ values were estimated using BIOST@T-BINDING and BIOST@T-SPEED softwares, respectively.

[5] = biological target: T4, human CEACAM5 expressed on the surface …; assay: flow cytometry on CR-IGR-034P primary colon tumor cells
Method: Advanced human primary colon tumor CR-IGR-034P (Julien et al., Clin Cancer Res Oct. 1, 2012 18:5314-5328) was obtained from Patient-derived xenograft in mice. Tumor CR-IGR-034P was enzymatically dissociated using collagenase Type IV (Invitrogen; #17104-019) and deoxyribonuclease I (Invitrogen; #18047-019) for 1 h at […], Cell viability was estimated by Viacount application using Guava® easyCyte™ 8HT Flow Cytometry System. […] 100 μL/well of goat anti-mouse IgG conjugated with Alexa647 (Invitrogen; # A2135) or goat anti-human IgG conjugated with Alexa488 (Invitrogen; # A11013) was added for 45 min at 4° C. and washed three times with PBS 1% BSA. The antibody binding was evaluated after centrifugation and resuspension of cells by adding 200 pliwell PBS 1% BSA and read using Guava® easyCyte™ 8HT Flow Cytometry System. Apparent KD and EC50 values were estimated using BIOST@T-BINDING and BIOST@T-SPEED softwares, respectively.

Binder | percentage of binding compared to full binding with human CEACAM5 [1] [%] | percentage of binding compared to full binding with human CEACAM5 [2] [%] | percentage of binding compared to full binding with human CEACAM5 [3] [%] | EC50 [4] [nM] | EC50 [5] [nM]
B1 | 0.4 | 0.4 | 100 |  | 
B2 | 0.4 | 0.3 | 100 |  | 
B3 | 0.5 | 0.3 | 100 |  | 
B4 | 0.3 | 0.3 | 100 |  | 
B5 | 0.4 | 0.3 | 100 |  | 
B6 |  |  |  | 4.9 | 0.2
B7 |  |  |  | 0.73 | 1.4
B8 |  |  |  | 16 | 1
B9 |  |  |  | 6.2 | 2.8
